{
  "source": "patent US20110076265A1",
  "about": "(POMONA RICERCA S R L, published 2011)",
  "binders": {"B1": {"name": "Fab49 (human monoclonal Fab fragment produced by bacterial clone INF49) (Fab, V domains shown)", "VH": "LESGGGLVQPGGSLRLSCAASGITFSSYAMSWVRQAPGKGLEWVSTVNSGGGSTYYGDSVRGRFTISRDNSKSTLYLQLNSLRAEDTAIYYCAKDKGRPIFGLVTPSYYMDVWGNGT", "VL": "ELTQSPSSLSASVGDSVTITCRTSERISTYLNWYQQKPGKAPRLLVSGASTLQGGVPSRFSGSGSGTAFTLTINSLQPEDFATYYCQQSYSTPLTFGGGT"}},
  "key": {"[1]": {"target": "H1-subtype hemagglutinin of influenza A virus A/Wilson-Smith/33 (influenza A virus A/Wilson-Smith/33 …, UniProt P03454 18-565)", "assay": "ELISA, sequential dilutions of purified Fab on infected cell lysates"}, "[2]": {"target": "Hemagglutinin of influenza B virus B/Lee/40 (influenza B virus B/Lee/40, UniProt P03460 16-584)", "assay": "immunofluorescence on fixed, permeabilized infected cells"}, "[3]": {"target": "T1, H3-subtype hemagglutinin of influenza A virus A/Aichi/2/68 (H3N2) (influenza A virus A/Aichi/2/68 (H3N2), UniProt P03437 17-566)", "T1 construct": "also called A/Aichi/2/68 (ATCC VR-547)", "assay": "immunofluorescence on fixed, permeabilized infected cells"}, "[4]": {"target": "HA protein (H1-subtype hemagglutinin) of influenza A virus A/PR/08/1934 (influenza A virus A/PR/08/1934 (H1N1), UniProt P03452 18-565)", "assay": "immunofluorescence on fixed, permeabilized infected cells, Fab49 at 100 µg/ml"}},
  "data": [
    {"binder": "B1", "values": [
      {"measurement": "binding result", "setting": "[1]", "result": "binds"},
      {"measurement": "binding result", "setting": "[2]", "result": "no binding (tested: 100 µg/ml)"},
      {"measurement": "binding result", "setting": "[3]", "result": "no binding (tested: 100 µg/ml)"},
      {"measurement": "binding result", "setting": "[4]", "result": "binds"}
    ]}
  ]
}
